Assay results reported in US9573987B2 (priority 2011, dated 2017).

B1: DP20 P to A: CTP linking peptide wherein the prolines have been replaced with alanine (SEQ ID NO: 70) (protein, listed as Homo sapiens)
chain: GEEEEEKGPEHLCGAHLVDALYLVCGDRGFYSSSSRAAAASLASASRLAGASDTAILAQKGIVDECCHRSCDLRRLENYCN
B2: DP-20, C^0: DP20 structure with the native proinsulin C peptide as the linking peptide (protein)
chain: GEEEEEKGPEHLCGAHLVDALYLVCGDRGFYRREAEDLQVGQVELGGGPGAGSLQPLALEGSLQRKGIVDECCHRSCDLRRLENYCN
B3: DP20, S2A: CTP linking peptide wherein the serines have been replaced with alanine (SEQ ID NO: 80) (protein, listed as Homo sapiens)
chain: GEEEEEKGPEHLCGAHLVDALYLVCGDRGFYAAAARAPPPALPAPARLPGPADTPILPQKGIVDECCHRSCDLRRLENYCN

Assays:
insulin receptor = insulin receptor (Homo sapiens, UniProt P06213); test: Insulin receptor binding assay (competition, scintillation proximity); set-up: expressed in transfected cells; plasma membrane fragments; details: Table 9
[1] = molecular target: T1, insulin subtype A receptor (IR-A) (Homo sapiens, UniProt P06213); test: Insulin subtype A receptor phosphorylation, receptor transfected HEK293 cells; assay type: cell-based; details: for IC50: read-out: Phosphorylation at Insulin Receptor Subtype A (IC50), Table 16A
T1 construct: expressed in transfected cells; host or cells: HEK293
Experimental: (§1) Color development was stopped 5 min later by adding 0.05 ml 1 N HCl. Absorbance at 450 nm was measured on Titertek Multiscan MCC340 (ThermoFisher, Pittsburgh, Pa.). […]

[2] = molecular target: insulin subtype B receptor (IR-B) (Homo sapiens, UniProt P06213); test: Insulin subtype B receptor phosphorylation, receptor transfected HEK293 cells; assay type: cell-based; set-up: expressed in transfected cells; host or cells: HEK293; details: read-out: Phosphorylation at Insulin Receptor Subtype B (IC50); Table 16B
Experimental: as §1

IGF-1 receptor = IGF-1 receptor (Homo sapiens, UniProt P08069); test: IGF-1 receptor binding assay (competition, scintillation proximity); set-up: expressed in transfected cells; plasma membrane fragments; details: Table 9
Sequence of IGF-1 receptor (P08069 31-736 limits assumed): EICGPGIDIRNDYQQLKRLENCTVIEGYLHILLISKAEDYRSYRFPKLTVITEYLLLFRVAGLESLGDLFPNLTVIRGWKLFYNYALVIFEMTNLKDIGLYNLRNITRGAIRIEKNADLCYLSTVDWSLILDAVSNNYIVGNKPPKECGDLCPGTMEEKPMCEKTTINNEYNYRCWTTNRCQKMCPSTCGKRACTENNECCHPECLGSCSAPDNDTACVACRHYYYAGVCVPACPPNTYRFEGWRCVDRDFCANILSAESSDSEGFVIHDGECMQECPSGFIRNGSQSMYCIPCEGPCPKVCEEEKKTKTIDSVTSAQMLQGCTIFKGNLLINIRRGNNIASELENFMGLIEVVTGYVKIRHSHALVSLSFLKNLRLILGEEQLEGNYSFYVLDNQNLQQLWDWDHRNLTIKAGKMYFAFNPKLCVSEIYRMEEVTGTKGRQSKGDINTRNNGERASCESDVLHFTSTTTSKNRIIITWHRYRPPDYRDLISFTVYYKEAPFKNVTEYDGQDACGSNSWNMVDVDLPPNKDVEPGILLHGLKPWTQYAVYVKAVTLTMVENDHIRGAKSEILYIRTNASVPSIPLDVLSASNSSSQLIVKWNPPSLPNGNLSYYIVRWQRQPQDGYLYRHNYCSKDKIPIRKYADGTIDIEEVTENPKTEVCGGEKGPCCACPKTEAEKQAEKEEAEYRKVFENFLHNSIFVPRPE
Sequence of IGF-1 receptor (P08069 741-1367 partner limits assumed): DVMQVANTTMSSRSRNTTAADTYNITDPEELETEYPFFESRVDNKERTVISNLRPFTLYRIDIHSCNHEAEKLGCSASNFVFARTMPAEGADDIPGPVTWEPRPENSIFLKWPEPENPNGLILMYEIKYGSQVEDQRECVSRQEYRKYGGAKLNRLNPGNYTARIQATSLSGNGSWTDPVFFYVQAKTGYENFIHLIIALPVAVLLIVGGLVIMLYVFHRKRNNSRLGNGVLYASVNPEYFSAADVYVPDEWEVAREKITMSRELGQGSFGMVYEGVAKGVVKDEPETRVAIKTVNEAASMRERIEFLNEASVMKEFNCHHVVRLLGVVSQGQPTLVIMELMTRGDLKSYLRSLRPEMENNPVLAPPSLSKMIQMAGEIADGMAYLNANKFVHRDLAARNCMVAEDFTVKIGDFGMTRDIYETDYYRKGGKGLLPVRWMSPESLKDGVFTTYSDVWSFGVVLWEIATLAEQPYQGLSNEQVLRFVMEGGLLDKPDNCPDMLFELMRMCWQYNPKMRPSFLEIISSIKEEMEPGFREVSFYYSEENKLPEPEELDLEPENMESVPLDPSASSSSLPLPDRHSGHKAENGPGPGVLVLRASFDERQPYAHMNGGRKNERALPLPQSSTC

Row | Molecule | Insulin Receptor % insulin (in test) (insulin receptor) [%] | IC50 [1] [nM] | IC50 [2] [nM] | other results
1 | CC[C@H](C)[C@H](NC(=O)CN)C(=O)N[C@H](C(=O)N[C@@H](CC(=O)O)C(=O)N[C@@H](CCC(=O)O)C(=O)N[C@H]1CSSC[C@@H]2NC(=O)[C@H](CO)NC(=O)[C@H](C)NC(=O)[C@H](Cc3c[nH]cn3)NC(=O)[C@H](CSSC[C@H](NC(=O)[C@H](CC(C)C)NC(=O)[C@H](Cc3c[nH]cn3)NC(=O)[C@H](CCC(=O)O)NC(=O)[C@@H]3CCCN3C(=O)CN)C(=O)NCC(=O)N[C@@H](C)C(=O)N[C@@H](CC(=O)O)C(=O)N[C@@H](CC(C)C)C(=O)N[C@@H](C(C)C)C(=O)N[C@@H](CC(=O)O)C(=O)N[C@@H](C)C(=O)N[C@@H](CC(C)C)C(=O)N[C@@H](Cc3ccc(O)cc3)C(=O)N[C@@H](CC(C)C)C(=O)N[C@@H](C(C)C)C(=O)N[C@H](C(=O)NCC(=O)N[C@@H](CC(=O)O)C(=O)N[C@@H](C)C(=O)NCC(=O)N[C@@H](Cc3ccccc3)C(=O)N[C@@H](Cc3ccc(O)cc3)C(N)=O)CSSC[C@@H](C(=O)N[C@@H](CC(N)=O)C(=O)O)NC(=O)[C@H](Cc3ccc(O)cc3)NC(=O)[C@H](CC[S+](C)[O-])NC(=O)[C@H](CCC(=O)O)NC(=O)[C@H](CC(C)C)NC(=O)[C@H](CCCNC(=N)N)NC(=O)[C@H](CCCNC(=N)N)NC(=O)[C@H](CC(C)C)NC(=O)[C@H](CC(=O)O)NC2=O)NC1=O)C(C)C (stereo partly drawn) | 400.7 |  |  | 
2 | DP20 random: CTP linker sequence randomized; linking peptide PPRPPQSASPPDLSPLSGTPSRPSLS; SEQ ID NO: 69 (listed as Homo sapiens) |  | 8.08 | 2.46 | 
3 | CC[C@H](C)[C@H](NC(=O)CN)C(=O)N[C@H](C(=O)N[C@@H](CC(=O)O)C(=O)N[C@@H](CCC(=O)O)C(=O)N[C@H]1CSSC[C@@H]2NC(=O)[C@H](CO)NC(=O)[C@H](CCCNC(=N)N)NC(=O)[C@H](Cc3ccccc3)NC(=O)[C@H](CSSC[C@H](NC(=O)[C@H](CC(C)C)NC(=O)[C@H](Cc3c[nH]cn3)NC(=O)[C@H](CCC(=O)O)NC(=O)[C@@H]3CCCN3C(=O)CN)C(=O)NCC(=O)N[C@@H](C)C(=O)N[C@@H](CC(=O)O)C(=O)N[C@@H](CC(C)C)C(=O)N[C@@H](C(C)C)C(=O)N[C@@H](CC(=O)O)C(=O)N[C@@H](C)C(=O)N[C@@H](CC(C)C)C(=O)N[C@@H](Cc3ccc(O)cc3)C(=O)N[C@@H](CC(C)C)C(=O)N[C@@H](C(C)C)C(=O)N[C@H](C(=O)NCC(=O)N[C@@H](CC(=O)O)C(=O)N[C@@H](CCCNC(=N)N)C(=O)NCC(=O)N[C@@H](Cc3ccccc3)C(=O)N[C@@H](Cc3ccc(O)cc3)C(N)=O)CSSC[C@@H](C(=O)N[C@@H](C)C(N)=O)NC(=O)[C@H](Cc3ccc(O)cc3)NC(=O)[C@H](CC[S+](C)[O-])NC(=O)[C@H](CCC(=O)O)NC(=O)[C@H](CC(C)C)NC(=O)[C@H](CCCNC(=N)N)NC(=O)[C@H](CCCNC(=N)N)NC(=O)[C@H](CC(C)C)NC(=O)[C@H](CC(=O)O)NC2=O)NC1=O)C(C)C (stereo partly drawn) [IGF-1 A:B (H5D10Y16L17) (S═O)DPI] | 316.0 |  |  | 
4 | CC[C@H](C)[C@H](NC(=O)CN)C(=O)N[C@H](C(=O)N[C@@H](CC(=O)O)C(=O)N[C@@H](CCC(=O)O)C(=O)N[C@H]1CSSC[C@@H]2NC(=O)[C@H](CO)NC(=O)[C@H](CCCNC(=N)N)NC(=O)[C@H](Cc3ccccc3)NC(=O)[C@H](CSSC[C@H](NC(=O)[C@H](CC(C)C)NC(=O)[C@@H](NC(=O)[C@H](CCC(=O)O)NC(=O)[C@@H]3CCCN3C(=O)CN)[C@@H](C)O)C(=O)NCC(=O)N[C@@H](C)C(=O)N[C@@H](CCC(=O)O)C(=O)N[C@@H](CC(C)C)C(=O)N[C@@H](C(C)C)C(=O)N[C@@H](CC(=O)O)C(=O)N[C@@H](C)C(=O)N[C@@H](CC(C)C)C(=O)N[C@@H](Cc3ccc(O)cc3)C(=O)N[C@@H](CC(C)C)C(=O)N[C@@H](C(C)C)C(=O)N[C@H](C(=O)NCC(=O)N[C@@H](CC(=O)O)C(=O)N[C@@H](CCCNC(=N)N)C(=O)NCC(=O)N[C@@H](Cc3ccccc3)C(=O)N[C@@H](Cc3ccc(O)cc3)C(N)=O)CSSC[C@@H](C(=O)N[C@@H](C)C(N)=O)NC(=O)[C@H](Cc3ccc(O)cc3)NC(=O)[C@H](CCSC)NC(=O)[C@H](CCC(=O)O)NC(=O)[C@H](CC(C)C)NC(=O)[C@H](CCCNC(=N)N)NC(=O)[C@H](CCCNC(=N)N)NC(=O)[C@H](CC(C)C)NC(=O)[C@H](CC(=O)O)NC2=O)NC1=O)C(C)C [IGF-1 A:B (E10Y16L17) DPI] |  |  |  | IGF-1 Receptor % IGF-1 (in test) (IGF-1 receptor): 3.3%
5 | CC[C@H](C)[C@H](NC(=O)CN)C(=O)N[C@H](C(=O)N[C@@H](CC(=O)O)C(=O)N[C@@H](CCC(=O)O)C(=O)N[C@H]1CSSC[C@@H]2NC(=O)[C@H](CO)NC(=O)[C@H](CCCNC(=N)N)NC(=O)[C@H](Cc3ccccc3)NC(=O)[C@H](CSSC[C@H](NC(=O)[C@H](CC(C)C)NC(=O)[C@@H](NC(=O)[C@H](CCC(=O)O)NC(=O)[C@@H]3CCCN3C(=O)CN)[C@@H](C)O)C(=O)NCC(=O)N[C@@H](C)C(=O)N[C@@H](CCC(=O)O)C(=O)N[C@@H](CC(C)C)C(=O)N[C@@H](C(C)C)C(=O)N[C@@H](CC(=O)O)C(=O)N[C@@H](C)C(=O)N[C@@H](CC(C)C)C(=O)N[C@@H](CCC(N)=O)C(=O)N[C@@H](Cc3ccccc3)C(=O)N[C@@H](C(C)C)C(=O)N[C@H](C(=O)NCC(=O)N[C@@H](CC(=O)O)C(=O)N[C@@H](CCCNC(=N)N)C(=O)NCC(=O)N[C@@H](Cc3ccccc3)C(=O)N[C@@H](Cc3ccc(O)cc3)C(=O)N[C@@H](Cc3ccccc3)C(=O)N[C@@H](CC(N)=O)C(=O)N[C@@H](CCCCN)C(=O)N3CCC[C@H]3C(=O)N[C@H](C(N)=O)[C@@H](C)O)CSSC[C@@H](C(=O)N[C@@H](C)C(N)=O)NC(=O)[C@H](Cc3ccc(O)cc3)NC(=O)[C@H](CCSC)NC(=O)[C@H](CCC(=O)O)NC(=O)[C@H](CC(C)C)NC(=O)[C@H](CCCNC(=N)N)NC(=O)[C@H](CCCNC(=N)N)NC(=O)[C@H](CC(C)C)NC(=O)[C@H](CC(=O)O)NC2=O)NC1=O)C(C)C [IGF-1 A:B] | 5.8 |  |  | Insulin Receptor % native insulin activity (0.6 nM) (insulin receptor): 5.8%
6 | B1 |  |  |  | in vitro phosphorylation activity at the insulin subtype A receptor (result in words) ([1]; FIGS. 21, 23): appreciable activity at the insulin receptor, equivalent to that of native IGF-1
7 | B2 |  | 84.3 | 35.4 | 
8 | B3 |  | 11.8 | 7.44 | 
